experiment: soluble on expression in E. coli; label from the status in PepcDB or PDB records

Sequence	soluble on expression in E. coli
MAIPFFEEEHAPKSEPSGDQVDSPMAFSIDPGHDQVDFEGPPSAAEELPPPGATSEPVAPPSAEEQLLAWKFLAITMCKVLKQFYQQHKSSGKSSKLKATVQIQPQAQ	not soluble
MAHHHHHHMGTLEAQTQGPGSMGTSQEFETSSLKTLPLYELHEKAGAKFGAFAGWRMPLTYPLGVLKEHLHTRAHAGLFDISHMKLIAVEGPKAVEFLSYALPVDAALLKIGQSRYSYLLNERAGILDDLILTRLAECRFMLVANAGNAQADFAELEKRAFGFECQVIALERVLLALQGPQAAAVLADAGLPGNELLFMQGFEPQQDWFITRSGYTGEDGFEIALPIGCARALAEKLLGDSRVEWVGLAARDSLRLEAGLCLHGNDITPDTTPIDAALTWAVPKNVREKAQFYGAKAFLESLQKGPSRCRVGLKPQTRQPIRAGAVLFDNEGNRIGVVTSGGFGPSFDGPVAMGYVPVAWKVEGTEVFTELRGKKIALSVHSLPFVEQRYFKG	soluble
MKFYILLVVLVAFVAAKPHPGYGRPSYGGGYGGGGGDFGGGGSGGQWGSQSSSFQQSQSSGGFQNNAGGGFGGGMGPGGGGWGRR	not soluble
MGSDKIHHHHHHMQEIFAVLPETIRQLLKKLPPSIQKDVEEIRIRVHRPLEVIVNHLPHYPEHQGCEYVVTTKDAQFLLNQLSAYSIYAFEEELKRGFITMAGGHRVGLAGKVTLEKGYVKTVRDISSFNIRVAKQKIGTAEPLISHVYQKGWLNTLLIGPPQSGKTTLLRDLARLVSVGWSRKGIPPLKVGIVDERSEIAAAVKGVPQHELGMRVDVLDGCPKAEGMMMMIRSMSPDVLIVDEIGRKEDCVAIQEALHAGVKVMTTAHGYELEEVSKRPAIRELLEIEAFDRCIELERRAKPGVVRRIRNAKAKDVGYVS	not soluble
MAICESGALPSHVGALSYSGGAASSFFGRRNADGLNDKWLALRDAFRAAGGDLLAIEDARSAALDFVIHVNAHRLRHDVPAFVILAESEFIHPPNVDWRMLQQYKGIFTWMPDLVRRGIGTEICLAHPLGAGVVDGYQERPQLLVMIASNKALPVWRPAVDLYRERVRAIRWFEKHAPQAFALYGHDWDKSPRLPTPLGGIVHGVEFVLPWRLQWFPSWKGVIPSKREVLRHARFSLCYENVRGLRGYITEKIFDAFCAGNVPVYWGAEDITDYIPADCFIDRRAFGDYADLYRYLTSMPETRYIQYQQAICDFLVSPAAKRFSSEIFATTIVGKVLDTLGRRDE	not soluble
MVGGVEELSIEQLASSISTYKEQLEQNFVCGLEFRIGEEKLNVRQLLSEDPRNSEYADMEKELKEVIALTEEVLATAKQNEISLSDAGVSAEATPGSPDLEGAWEKTGLRNDPIHEGKFPVGTKVQAVFSDDGEWYDATIEAHTANGYFVAYDEWGNKEEVDPDNVRPIEQNAIVEAERLAQATKNALKRKIEKAASSDYQTKTLPAKLKIDPNDPEDVKIAKRKKIHAFKSKARFEQLEVVQNKKQNDWQQFQTTKAKTKKVGFFTGRKKESIFKSPEDPFGKVGVTGSGKGLTDFQKREKHLHLKSGNAEGTDE	soluble
SLSPKFKTIIIDDIPSCVEDIKKIILKDKRFEVVATASNGLEGVDQIRLHNPDLVLTDIEMPVMNGFDMVIGLREMLDLTPTIIFITVYDQYAIQAIRCSAFDFILKTGLDQELPMALNEYVKKRAAKQPLLSKQIESLIKSFERNKQIIIRSNICDNFINPMDIIYISTSKNHANSIYLKNGECIATNQSLSHFEKILSETDFFRLNKSNIININFIKEIRKETNAFRRKYVYMKYTEADIKLAIPPGKYAKLFDFIEENSSEG	not soluble
MPTPCYISITGQTQGNITAGAFTADSVGNIYVQGHEDEMLVQEFLHNVTVPTDPQSGQPAGQRAHKPFIFTVALNKAVPLMYNALASGEMLPTTELHWWRTSVEGKQEHYFTTRLTDSTIVDMKLHMPHCQDPAKREFTQLLEVSLAYRKIEWEHVKSGTSGADDWRAPLEA	soluble
MRLLLAAPHSGAGKTTVSLALLLALRARGLRVQPFKVGPDYIDPTHLEKAAARRPYNLDGFFLDETGLLALFRHGARGADFALIEGVMGLFDGKDPRGEVGSTAQVARLLKAPVALVVDAKGMAGSIAPLALGFRDFHPGVRVVGVFANRVGSERHAEILKEALKAVGLPLLGWLPQDPALELPERHLGLVLAGEVAPPLEALRRAFRVDLEGVLRLAASAPPLPEARPFLPPRRPPRARVAYAWDKAFSFYYPEALELLEALGAELVPFSPLEDEALPKAHALLLGGGYPELFAERLSANVALREAIRRFPGPIVAECGGYMYLSQGLWVGERFFPMVGLVPGEARMAERPVLGYREVEALRDSPVARKGQAFKGHEFHYARLPASPSPAWRRLGGEEVEGYTDGRVLASFVHLYLPARPEGVERLLGLASRGKAAGASLEHHHHHH	not soluble
MGSDKIHHHHHHMKLNLAVFAYHLADYAPRLYDSEVHGLGIGDVRFIDRQETFLSESVYIGAWDKLQALIRPPSYVVCIGRDETTDRWLEKHGVKALILDSEVELNEVFERLQDIFQHYNRLESELLEAVLCKEPLNVLLNICAKFFANPTFITDAALCLVATCDNFAHPETDRAWQETIESGRSSSELLLLMKRKKLTNLLNTSRKAEFVNVGENYSKIICANYFDQEVRIATFTVSEAYTPLSPLQAGLVDHVAKLLTAEVRKQHKASSRYLFAIRSNISNLLHGQKIDGAILKTNFAHIGWTDQEDYRLLKIPLTAAELADGTAGHNRKIYESIFPHYVSLDLNEVLILVIRCARDTEADKRRFAELKKHLKNENAACGVSKTFHDFDMLGEEYKLANAALEIGSWKYPKEALYFYEDMMLEHLFSEGSRIFNLRSLCHDSVLRIAEHDQQNNSSLLQTLKVYLLQEKSLLAASQELHIHRNTLVYRLGKIEQISGLDLNSPLIRLQGILSCLILEYLNGLEEKAPD	not soluble
MGSDKIHHHHHHMMFVHIADNHLGYRQYNLDDREKDIYDSFKLCIKKILEIKPDVVLHSGDLFNDLRPPVKALRIAMQAFKKLHENNIKVYIVAGNHEMPRRLGEESPLALLKDYVKILDGKDVINVNGEEIFICGTYYHKKSKREEMLDKLKNFESEAKNYKKKILMLHQGINPYIPLDYELEHFDLPKFSYYALGHIHKRILERFNDGILAYSGSTEIIYRNEYEDYKKEGKGFYLVDFSGNDLDISDIEKIDIECREFVEVNIKDKKSFNEAVNKIERCKNKPVVFGKIKREFKPWFDTLKDKILINKAIIVDDEFIDMPDNVDIESLNIKELLVDYANRQGIDGDLVLSLYKALLNNENWKELLDEYYNTKFRG	not soluble
MAHHHHHHMMRCSRGCRRQLRPYYNLPSKSDHGRKMTGFLTPYRHWMWKQNELWRNVHEAQFEHLRKVYKRQWLESFRVNADEYIYKYNITKAAQLAQWEYEMQAQEKKRLEAKQMTEGRQALKKKHLDLLREFHERQFFFWYERASERLQSMNLIQYIPQSRVQEHIERELDKYVAGKSEAYPLNFVGQMPLVEDREGNIVEVPEGLLTNHVSEHPESTVKPHQPHESTSVSVEEQLLRTMASAREESLEEWIDDSRALSETIDDISREEEQRDEDTRVARSMEETDNEREISRRMYIDRGKTGSKAIFRRPTLSETDGGSASIPVGGVAASPADTSAPMRRRKKGKLDKAHALQEQQDAMIARMSAKSLKDGESSISIVKRGEIATSRGRIRDKAAIPTQEVLMQKPELAAGSVPNARISFKDKVDQLYHRGKYKQKKEDDNNPNEDL	not soluble
MDWHCVSPDGCERSEELQRIDRAYSTDYEWEFASTVDDSFEEYAMRILTDSLGSGCAWLYDLTLLGYNLQRSRQCYTVAGFELELSIPNEDPATFSEWVVVGRDIDVLGEE	not soluble
MTNNDTTLQLSSVLNRECTRSRVHCQSKKRALEIISELAAKQLSLPPQVVFEAILTREKMGSTGIGNGIAIPHGKLEEDTLRAVGVFVQLETPIAFDAIDNQPVDLLFALLVPADQTKTHLHTLSLVAKRLADKTICRRLRAAQSDEELYQIITDTEGTPDEA	soluble

Reference: the DeepSol protein solubility set
